The source of these data is US20050281828A1 (published 2005).

B1: IgG1k clone A10 (Fab, V domains shown)
VH: EVQLQQSGPELEKPGASVKISCKASGYSFTGYNMNWVKQSNGKSLEWIGNIDPYYGDITYNQKFKGKATLTVDKSSSTAYMQLKSLTSEDSAVYYCARTATALYTMDYWGQGTSVTVSS
VL: EIVLTQSPAIMSASLGERVTMTCTASSSVSSSYLHWYQQKPGSSPKLWIYSTSNLASGVPARFSGSGSGTSYSLTISSMEAEDAATYYCHQYHRSPQTFGGGTKLEIK
notes: phage-Fab screening
B2: IgG1k clone C7 (phage-Fab screening) (Fab, V domains shown)
VH: B1 VH with N41S, I51F, D57V
VL: EIVLTQSPAIMSASPGEKVTMTCRASSSVSSSYLHWYQQKSGASPKLWIYSTSNLASGVPARFSGSGSGTSYSLTISSVEAEDAATYYCQQYSGYPLTFGSGTKLEIK
B3: IgG1k clone B7 (Fab, V domains shown)
VH: B1 VH with N41S, I51F, D57V
VL: B2 VL
notes: phage-Fab screening
B4: IgG1k clone D8 (Fab, V domains shown)
VH: B1 VH with D57G, I58S, T59S
VL: B2 VL with L97G, S101G
notes: phage-Fab screening
B5: L-SIGN Fab clone C7 (soluble, purified) (Fab, V domains shown)
VH: B1 VH with N41S, I51F, D57V
VL: B2 VL

Where a chain is given by its changes, count along the chain named.

One assay has as its target T1, L-SIGN receptor on cells (K562/L-SIGN) (human, UniProt Q9H2X3 1-399).
T1 construct: whole, on cells; also called L-SIGN on LSECs
T1 sequence (looked up): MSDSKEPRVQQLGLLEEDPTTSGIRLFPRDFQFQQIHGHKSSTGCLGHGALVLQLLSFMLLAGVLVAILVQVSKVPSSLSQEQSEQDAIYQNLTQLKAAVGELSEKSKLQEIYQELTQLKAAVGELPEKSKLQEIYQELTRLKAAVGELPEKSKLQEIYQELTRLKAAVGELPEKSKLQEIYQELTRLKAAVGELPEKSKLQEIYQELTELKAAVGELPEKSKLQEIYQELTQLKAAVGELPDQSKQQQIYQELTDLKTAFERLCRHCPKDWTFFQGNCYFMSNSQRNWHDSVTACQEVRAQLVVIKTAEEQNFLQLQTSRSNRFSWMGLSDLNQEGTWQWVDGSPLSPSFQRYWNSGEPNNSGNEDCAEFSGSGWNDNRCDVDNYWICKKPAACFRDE
Nature of the assay: flow cytometry, K562/L-SIGN cells. A general note: A flow cytometer gives signals particle by particle.
As to B1, the “Geo. Mean Fluorescence” value was 21.3.

Consider B2, for which the “Geo. Mean Fluorescence” value is 101.

As to B3, the “Geo. Mean Fluorescence” value worked out at 90.9.

As for B4, the “Geo. Mean Fluorescence” value was found to be 17.3.

The target of a further assay is T2, DC-SIGN receptor on cells (K562/DC-SIGN) (human, UniProt Q9NNX6 1-404).
T2 construct: whole, on cells
T2 sequence (looked up): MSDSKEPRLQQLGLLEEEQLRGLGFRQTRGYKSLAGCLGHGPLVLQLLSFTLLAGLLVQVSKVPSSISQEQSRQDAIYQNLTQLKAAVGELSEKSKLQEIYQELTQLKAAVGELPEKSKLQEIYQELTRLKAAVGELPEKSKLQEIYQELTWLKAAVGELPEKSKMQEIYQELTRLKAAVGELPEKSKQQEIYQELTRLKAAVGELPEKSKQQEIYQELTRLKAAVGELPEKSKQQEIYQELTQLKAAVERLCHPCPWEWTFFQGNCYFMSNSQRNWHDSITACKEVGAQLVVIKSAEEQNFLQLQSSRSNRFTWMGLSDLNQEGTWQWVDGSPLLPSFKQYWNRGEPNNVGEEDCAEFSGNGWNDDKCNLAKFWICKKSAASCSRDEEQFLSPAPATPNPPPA
Nature of the assay: flow cytometry, K562/DC-SIGN cells.
For the molecule B5, the binding result is recorded as “no binding (tested: 20 ug/ml)”.

The target in another assay is T3, recombinant human L-SIGN (L-SIGNFc fusion protein) (human, UniProt Q9H2X3 78-399).
T3 construct: also called DC-SIGNR; human DC-SIGNR; not shown: Fc part of the fusion
T3 sequence (looked up): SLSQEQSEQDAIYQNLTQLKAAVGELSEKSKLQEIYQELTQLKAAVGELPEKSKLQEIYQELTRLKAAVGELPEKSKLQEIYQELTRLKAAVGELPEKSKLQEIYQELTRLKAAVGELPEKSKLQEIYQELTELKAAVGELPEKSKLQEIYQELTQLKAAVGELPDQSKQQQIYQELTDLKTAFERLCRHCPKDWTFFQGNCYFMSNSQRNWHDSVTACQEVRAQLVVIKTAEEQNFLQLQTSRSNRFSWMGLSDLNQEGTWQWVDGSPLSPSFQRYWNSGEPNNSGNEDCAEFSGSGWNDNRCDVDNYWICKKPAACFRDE
Nature of the assay: ELISA, recombinant L-SIGN. On the technique in general: ELISA stands for enzyme-linked immunosorbent assay.
For B1, the OD405 came out at 2.9 OD405.

As to B2, the OD405 is 3.5 OD405.

With B3, the OD405 is 2.7 OD405.

Take B4: the OD405 worked out at 2.1 OD405.

For a further assay, the target named is T4, recombinant human DC-SIGN (human, UniProt Q9NNX6 62-404).
T4 construct: Added to plates coated with anti-human Fc, so probably an Fc fusion
T4 sequence (looked up): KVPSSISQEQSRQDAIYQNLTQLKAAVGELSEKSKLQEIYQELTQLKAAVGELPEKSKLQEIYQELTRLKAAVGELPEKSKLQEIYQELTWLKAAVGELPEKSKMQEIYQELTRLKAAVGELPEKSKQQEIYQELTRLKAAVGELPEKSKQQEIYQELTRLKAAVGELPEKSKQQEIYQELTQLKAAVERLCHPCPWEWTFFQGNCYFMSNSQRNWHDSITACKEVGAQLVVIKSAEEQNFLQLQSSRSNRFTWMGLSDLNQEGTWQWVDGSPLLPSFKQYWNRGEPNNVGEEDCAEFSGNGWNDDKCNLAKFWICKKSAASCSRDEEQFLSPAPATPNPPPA
The experiment in a line: ELISA, recombinant DC-SIGN.
For the molecule B1, the OD405 was determined as 0.1 OD405.

Consider B2, for which the OD405 was 0.1 OD405.

As to B3, the OD405 was determined as 0.1 OD405.

For the molecule B4, the OD405 was determined as 0.1 OD405.
